Data published in patent US20250073355A1, “CD44-BINDING PEPTIDE REAGENTS AND METHODS” (THE REGENTS OF THE UNIVERSITY OF MICHIGAN, priority 2021, published 2025).
No end group written: not given here. IRDye800 = fluorophore linked at C-terminus via GGGSC linker

Legend:
CD44 = molecular target: T1, CD44 (Homo sapiens, UniProt P16070); test: Competitive inhibition with unlabeled peptide on SK-Hep1 cells; format: cell-based; settings: competition
T1 construct: endogenous in cells; host or cells: SK-Hep1 (human HCC cells)
T1 sequence (P16070 21-742): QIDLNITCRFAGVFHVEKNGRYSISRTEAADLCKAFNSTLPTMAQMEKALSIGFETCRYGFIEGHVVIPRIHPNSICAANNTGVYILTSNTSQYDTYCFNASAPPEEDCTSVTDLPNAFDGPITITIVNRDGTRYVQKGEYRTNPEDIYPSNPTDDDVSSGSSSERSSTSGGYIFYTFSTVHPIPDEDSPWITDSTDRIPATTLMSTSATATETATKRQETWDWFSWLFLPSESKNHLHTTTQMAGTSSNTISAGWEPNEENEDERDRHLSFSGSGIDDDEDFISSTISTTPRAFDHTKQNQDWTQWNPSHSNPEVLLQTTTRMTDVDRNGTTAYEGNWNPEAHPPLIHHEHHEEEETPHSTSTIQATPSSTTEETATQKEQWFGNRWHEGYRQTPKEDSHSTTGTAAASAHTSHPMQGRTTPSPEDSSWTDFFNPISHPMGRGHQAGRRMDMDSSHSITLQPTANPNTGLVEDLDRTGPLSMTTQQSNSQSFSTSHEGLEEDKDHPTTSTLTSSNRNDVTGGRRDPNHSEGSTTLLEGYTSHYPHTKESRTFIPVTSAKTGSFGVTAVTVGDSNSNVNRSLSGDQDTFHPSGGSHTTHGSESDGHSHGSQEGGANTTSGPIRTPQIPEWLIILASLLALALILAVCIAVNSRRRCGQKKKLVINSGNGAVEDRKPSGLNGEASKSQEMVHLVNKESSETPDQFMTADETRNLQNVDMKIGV
Protocol: (§1) Specific peptide binding to CD44 was further validated using competitive inhibition by adding unlabeled peptide. Approximately […] SK-Hep1 cells were grown to ˜70% confluence on cover glass in triplicate. Unlabeled peptides at concentrations of 0, 10, 20, 40, 80, and 100 μM were incubated with the cells for 30 min at 4° C. The cells were washed with PBS and incubated with 5 μM of the target peptides for another 30 min at 4° C. The cells were washed and fixed with 4% PFA for 8 min. The cells were washed with PBS and mounted with ProLong Gold reagent containing DAPI (Invitrogen).

SK-Hep1 cells [1] = test: Apparent association time constant; parameters: species or system human; settings: binding to SK-Hep1 cells
SK-Hep1 cells (CD44+) = test: Confocal fluorescence microscopy of binding to SK-Hep1 cells; format: cell-based, human
Protocol: The cells were washed with PBS 1× and incubated with 4 μM of either target or control peptide for 3 min. The cells were then washed 3× in PBS, fixed with 4% paraformaldehyde (PFA) for 8 min, washed 3× with PBS then incubated with 2% BSA, 1% goat serum in PBS for 30 min. […] Confocal fluorescence images were collected on Leica SP8 confocal microscope using a 63× oil-immersion objective. Fluorescence intensities were quantified using custom MATLAB (Mathworks) software.

[2] = tested on: CD44 downstream signaling (pAKT, pErk1/2); test: Western blot of CD44 downstream cell signaling; format: cell-based, human; settings: 4 or 300 μM, 15 min, SK-Hep1 cells
Protocol: Western blots were performed to evaluate markers for activation of downstream cell signaling, FIG. 11. SK-Hep1 cells were incubated with either hyaluronan (HA) or peptide to evaluate activation of downstream signalling after binding to CD44. […] of low molecular weight HA (GLR001, R&D Systems) was added for 15 min. Peptides are added at concentrations of 4 and 300 μM for 15 min. Anti-CD44 antibody (#ab189524, Abcam), anti-AKT (#4691, Cell Signaling), anti-phospho-AKT (#9271, Cell Signaling), anti-ERK1/2 (#ab17942, Abcam,), anti-phospho-ERK1/2 (#ab50011, Abcam), and anti-β-Actin (#4967, Cell Signaling Technology) were used per manufacturer's instructions.

SK-Hep1 cells [3] = test: MTT cytotoxicity assay; format: cell-based, human; settings: up to 200 μg/mL, 24 hours
Protocol: The CD44-binding and control peptides were serially diluted over a range of concentrations and incubated with SK-Hep1 cells seeded in 96-well plates for 24 hours. The media was then removed, and MTT solution (100 μL, 0.5 mg/mL) was added. After 4 hours for incubation, the MTT solution was removed, and 150 μL of DMSO was added to each well to solubilize formazan crystals produced by living cells. Absorbance at Aabs=570 (test) and 630 nm (reference) was measured using a plate reader (VersaMax™ Tunable Microplate Reader). The half-maximum inhibitory concentration (IC50) was measured.
An MTT assay was performed to evaluate the cytotoxicity of CD44 peptides. Peptides were incubated with SK-Hep1 cells in increasing concentrations up to 200 μg/mL for 24 hours.

[4] = tested on: orthotopic human HCC xenograft tumors and major organs; test: Peptide biodistribution in tumor-bearing mice; format: in vivo
Description: The animals were euthanized at peak uptake after intravenous injection of the target and control peptides. Major organs, including heart, spleen, lung, liver, brain, stomach, kidney, intestine, were resected and exposed for white light and fluorescence imaging to measure peptide biodistribution. White light and NIR fluorescence images were collected from the major organs, FIG. 17.

[5] = tested on: orthotopic SK-Hep1 xenograft tumors; test: Whole body fluorescence imaging of orthotopic human HCC xenograft tumors; settings: post intravenous injection
Protocol: (§2) Human HCC xenograft tumors were implanted orthotopically in female nude athymic mice. First, ˜5×10^6 SK-Hep1 tumor cells were injected subcutaneously into the hind limb flank. Tumors were then monitored twice a week and allowed to grow to 1-2 cm in diameter for 10-30 days. A small horizontal incision was made below the sternum to expose the liver. The liver was incised with a sharp scalpel horizontally in parallel with the surface of the exposed liver. A piece of the subcutaneous tumor with dimensions of ˜1×1×1 mm^3 was implanted into the incision, and then the site was sealed with absorbable hemostatic material (surgical, Johnson & Johnson). The liver was returned to its original position after confirming hemostasis.

human HCC specimens = test: Peptide validation in human HCC specimens ex vivo (immunofluorescence)
Protocol: A tissue microarray (TMA) of human HCC was generated to investigate specific binding by the CD44 peptide to human HCC. Formalin-fixed, paraffin-embedded (FFPE) sections of human liver were obtained from the archived tissue bank in the Department of Pathology. The specimens were washed 3× in xylene for 3 min, 100% ethanol for 3 min, 95% ethanol for 3 min, 70% ethanol for 3 min, rinsed in H2O for 2 min. Antigen unmasking was performed by boiling the slides in 10 mM sodium citrate buffer with 0.05% Tween at pH 6.0 for 15 min. The slides were cooled to RT, and were washed in H2O 3× for 5 min. Blocking was performed with DAKO protein blocking agent (X0909, DAKO) for 1 hour at RT. The peptides at 1 μM concentration were incubated for 10 min at RT. The sections were washed 3× in PBST for 3 min, and incubated with 400 μL at 1:500 dilution of recombinant anti-CD44 (#ab189524, Abcam) overnight at 4° C. The sections were then washed 3× in PBST for 5 min. A 1:500 dilution of AF488-labeled secondary antibody (goat anti rabbit Alexa Fluor®488) was added to each section and incubated for 1 hour at RT. The secondary antibody solution was removed and washed 3× with PBST for 5 min. The sections were then mounted with ProLong Gold reagent containing DAPI (Invitrogen). The fluorescence images of each specimen were collected using confocal microscopy (SP8, Leica), and the mean fluorescence intensity from each image was measured from 3 boxes with dimensions of 20×20 μm^2 using custom MATLAB software. Regions of saturated image intensities were avoided.

[6] = Animal necropsy (histology, hematology); format: in vivo, mice; settings: 48 hours after systemic administration
Protocol: Whole blood was collected for evaluation of hematology and chemistry. Liver, kidney, heart, lung, spleen, stomach, intestine, and brain were harvested and submitted for routine histology (H&E). All slides were evaluated by a liver pathologist.

[7] = tested on: orthotopic human HCC xenograft tumors (SK-Hep1); test: Photoacoustic imaging of orthotopic human HCC xenograft tumors; settings: post intravenous injection
Protocol: as §2
IRDye800-labeled target and control peptides (300 μM in 200 μL PBS) were intravenously injected in mice bearing orthotopical SK-Hep1 tumors. An unlabeled peptide (1.5 mM, 100 μL) was injected 30 min prior to the labeled peptide to compete for binding. ICG (2.46 mg/kg) was injected intravenously as a control. Three-dimensional (3D) images were acquired from 0 to 48 h post injection and reconstructed using PAI tomography system (Nexus 128, Endra) using Iex=774 nm excitation. The photoacoustic signal intensity was measured from the two-dimensional (2D) maximum intensity projection (MIP) images, and the pre-injection images were used for background.
The photoacoustic images were collected to evaluate the time course for peptide uptake, FIG. 14A. […] Indocyanine green (ICG) was also administered (2.46 mg/kg) for comparison.

SK-Hep1 cells [8] = tested on: SK-Hep1 cells
Protocol: The apparent dissociation constant kd for peptide binding to cells was measured to assess the binding affinity. IRDye800-labeled target peptides were serially diluted in PBS at concentrations of 0, 10, 20, 40, 80, 100, and 200 nM. ˜10^5 SK-Hep1 cells were incubated with the peptides at 4° C. for 1 hour, washed with cold PBS, and the mean fluorescence intensities were measured using flow cytometry. The equilibrium dissociation constant kd=1/ka was calculated by performing a least squares fit of the data to the non-linear equation l=(l0+lmaxka [X])/([…]). l0 and lmax are the initial and maximum fluorescence intensities, corresponding to no peptide and at saturation, respectively, and [X] represents the concentration of the bound peptide. Prism 5.0 software (GraphPad Inc) was used to calculate kd.

[9] = Serum stability by analytical RP-HPLC; format: in vitro ADME; settings: mouse serum, up to 24 hours, read-out: half-life T1/2 in serum (converted)
[10] = molecular target: T2, CD44 (Cluster of differentiation 44) (human, UniProt P16070 21-742); test: confocal microscopy, SK-Hep1 control siRNA against CD44 knockdown cells
T2 construct: whole, on cells; The target is tied to CD44 by siRNA knockdown in SK-Hep1 cells; also called CD44 on human SK-Hep1 HCC cells
T2 sequence (P16070 21-742): as above

[11] = molecular target: T2, CD44 (Cluster of differentiation 44); test: confocal microscopy on SK-Hep1 cells
[12] = molecular target: T2, CD44 (Cluster of differentiation 44); test: flow cytometry on SK-Hep1 cells, labeled peptide 0-200 nM, 4 °C, 1 hour
Protocol: The apparent dissociation constant kd for peptide binding to cells was measured to assess the binding affinity [31]. IRDye800-labeled target peptides were serially diluted in PBS at concentrations of 0, 10, 20, 40, 80, 100, and 200 nM. ˜10⁵ SK-Hep1 cells were incubated with the peptides at 4° C. for 1 hour, washed with cold PBS, and the mean fluorescence intensities were measured using flow cytometry. The equilibrium dissociation constant kd=1/kₐ was calculated by performing a least squares fit of the data to the non-linear equation l=(l₀+lₘₐₓkₐ [X])/(l₀+kₐ[X]). l₀ and lₘₐₓ are the initial and maximum fluorescence intensities, corresponding to no peptide and at saturation, respectively, and [X] represents the concentration of the bound peptide. Prism 5.0 software (GraphPad Inc) was used to calculate kd.

[13] = molecular target: T2, CD44 (Cluster of differentiation 44); test: competition against 5 µM WKG*-IRDye800 on SK-Hep1 cells; third of five concentrations of unlabeled peptide
Protocol: as §1

[14] = molecular target: T2, CD44 (Cluster of differentiation 44); test: competition against 5 µM WKG*-IRDye800 on SK-Hep1 cells; second of five concentrations of unlabeled peptide
Protocol: as §1

[15] = molecular target: T2, CD44 (Cluster of differentiation 44); test: competition against 5 µM WKG*-IRDye800 on SK-Hep1 cells; fourth of five concentrations of unlabeled peptide
Protocol: as §1

[16] = molecular target: T2, CD44 (Cluster of differentiation 44); test: competition against 5 µM WKG*-IRDye800 on SK-Hep1 cells; fifth of five concentrations of unlabeled peptide
Protocol: as §1

[17] = molecular target: T2, CD44 (Cluster of differentiation 44); test: competition against 5 µM WKG*-IRDye800 on SK-Hep1 cells; first of five concentrations of unlabeled peptide (series 0, 10, 20, 40, 80, 100 µM; which five not stated)
Protocol: as §1

[18] = 1 μM peptide, 10 min, FFPE human sections

WKGWSYLWTQQA [WKG*]
change of WKG*-IRDye800 fluorescence intensities with increasing concentrations of unlabeled peptide (CD44): decreased significantly

CC(C)C[C@H](NC(=O)[C@H](Cc1ccc(O)cc1)NC(=O)[C@H](CO)NC(=O)[C@H](Cc1c[nH]c2ccccc12)NC(=O)CNC(=O)[C@H](CCCCN)NC(=O)[C@@H](N)Cc1c[nH]c2ccccc12)C(=O)N[C@@H](Cc1c[nH]c2ccccc12)C(=O)N[C@H](C(=O)N[C@@H](CCC(N)=O)C(=O)N[C@@H](CCC(N)=O)C(=O)N[C@@H](C)C(=O)NCC(=O)NCC(=O)NCC(=O)N[C@@H](CO)C(=O)N[C@@H](CSC1CC(=O)N(CCNC(=O)CCCCCN2C(=CC=C3CCCC(C=CC4=[N+](CCCCS(=O)(=O)[O-])c5ccc(S(=O)(=O)O)cc5C4(C)C)=C3Oc3ccc(S(=O)(=O)O)cc3)C(C)(C)c3cc(S(=O)(=O)O)ccc32)C1=O)C(N)=O)[C@@H](C)O (stereo partly shown) [WKG*-IRDye800]
apparent association time constant (time) (SK-Hep1 cells [1]): 6.8 min | apparent association time constant k (SK-Hep1 cells [1]): 0.26 min⁻¹ | fluorescence intensity for binding to SK-Hep1 cells compared with Hep 3B cells (SK-Hep1 cells (CD44+); SK-Hep1 (CD44+) vs Hep 3B (CD44−)): Significantly greater | Pearson correlation coefficient ρ of binding co-localization with anti-CD44-AF488 (SK-Hep1 cells (CD44+); merged image, SK-Hep1 cell surface): 0.81 | effect on CD44 downstream signaling (phosphorylation of AKT and Erk1/2) [2]: no effect | effect on cell viability (MTT) (SK-Hep1 cells [3]): no effect on cell viability until the highest concentrations were reached | intensity in adjacent normal liver region (mean±SD) ([4]; […] after intravenous injection): 0.92±0.45 | route of clearance ([4]; mouse, in vivo): primarily renal clearance | time of return to baseline, whole body fluorescence [5]: ~24 h | fluorescence intensity, HCC (mean±SD) (human HCC specimens; [18]): 1.47±0.50 | fluorescence intensity, adenoma (mean±SD) (human HCC specimens; [18]): 0.93±0.35 | fluorescence intensity, cirrhosis (mean±SD) (human HCC specimens; [18]): 0.67±0.34 | fluorescence intensity, normal human liver (mean±SD) (human HCC specimens; [18]): 0.56±0.21 | binding to the cell surface of HCC, immunofluorescence (human HCC specimens; human HCC sections): strong binding | acute toxicity, hematology and chemistry ([6]; n=3 mice): No acute peptide toxicity was observed | toxicity on histology (H&E) of vital organs ([6]; normal healthy mice): No signs of toxicity | time of return to baseline, photoacoustic [7]: ~24 h | improved binding affinity by comparison with previously reported CD44 peptides (SK-Hep1 cells [8]): 3 fold | Kd (SK-Hep1 cells [8]; read-out: apparent dissociation constant kd, SK-Hep1 cells, 4° C., 1 hour, flow cytometry): 0.043 µM | half-life [9]: 5.1 h

rabbit anti-CD44 antibody (EPR18668, Abcam)
fold change in fluorescence intensity, siCL relative to siCD441 [10]: 4.1 fold | fold change in fluorescence intensity, siCL relative to siCD442 [10]: 3.3 fold | fold change in fluorescence intensity, siCL relative to siCD443 [10]: 3.1 fold | fold change in fluorescence intensity relative to WYK*-IRDye800 (control) [11]: 5.61 fold

B1: WKG*-IRDye800 (peptide)
peptide: WKGWSYLWTQQAGGGSC-IRDye800
notes: Synthetic L-amino acid peptide made by Fmoc solid-phase synthesis on rink amide MBHA resin; also called CD44-directed peptide
Kd [12]: 0.043 µM

B2: unlabeled WKG* (peptide)
peptide: WKGWSYLWTQQA
modifications: also: may carry GGGSC linker and C-terminal amide
notes: The m/z of 1913.87 printed for WKG* fits the 12-mer plus GGGSC with a C-terminal amide; also called unlabeled peptide
fold change of fluorescence intensity relative to an equal concentration of WYK* [13]: 0.36 fold | fold change of fluorescence intensity relative to an equal concentration of WYK* [14]: 0.61 fold | fold change of fluorescence intensity relative to an equal concentration of WYK* [15]: 0.12 fold | fold change of fluorescence intensity relative to an equal concentration of WYK* [16]: 0.1 fold | fold change of fluorescence intensity relative to an equal concentration of WYK* [17]: 1.02 fold
